What was measured:
NF1 (nuclear factor 1/C) [1] = target: T1, NF1 (nuclear factor 1/C) (Sus scrofa (porcine), UniProt P21999 1-506); experiment: EMSA; 200 mM NaCl; protein:DNA 2.1:1 to 11:1; NF1 binding buffer: 5 mM Tris-Cl pH 8.0, 90 mM NaCl (200 mM for EMSA and Fig. 2d), 0.5 mM EDTA, 5% glycerol, 0.55 mM beta-mercaptoethanol, 1 ug BSA; TBP: same + 2 mM MgCl2; 25 min, room temperature; details: protein: recombinant; tags: 6xHis; chain copies: 2; label: 5'-biotin on both strands
NF1 (nuclear factor 1/C) [2] = target: T1, NF1 (nuclear factor 1/C); experiment: femtosecond UV laser crosslinking, western blot; 200 mM NaCl; 50 nJ pulses, total energy titrated; NF1 binding buffer: 5 mM Tris-Cl pH 8.0, 90 mM NaCl (200 mM for EMSA and Fig. 2d), 0.5 mM EDTA, 5% glycerol, 0.55 mM beta-mercaptoethanol, 1 ug BSA; TBP: same + 2 mM MgCl2; 25 min, room temperature; details: protein: recombinant; tags: 6xHis; chain copies: 2; label: 5'-biotin on both strands
[3] = target: TBP (TATA-box binding protein) (Homo sapiens, UniProt P20226 1-339); experiment: femtosecond UV laser crosslinking, western blot; 2 mM MgCl2; 50 nJ, 1.25 J; NF1 binding buffer: 5 mM Tris-Cl pH 8.0, 90 mM NaCl (200 mM for EMSA and Fig. 2d), 0.5 mM EDTA, 5% glycerol, 0.55 mM beta-mercaptoethanol, 1 ug BSA; TBP: same + 2 mM MgCl2; 25 min, room temperature; details: protein: commercial; label: 5'-biotin on both strands
Chain of TBP (TATA-box binding protein) (P20226 whole entry): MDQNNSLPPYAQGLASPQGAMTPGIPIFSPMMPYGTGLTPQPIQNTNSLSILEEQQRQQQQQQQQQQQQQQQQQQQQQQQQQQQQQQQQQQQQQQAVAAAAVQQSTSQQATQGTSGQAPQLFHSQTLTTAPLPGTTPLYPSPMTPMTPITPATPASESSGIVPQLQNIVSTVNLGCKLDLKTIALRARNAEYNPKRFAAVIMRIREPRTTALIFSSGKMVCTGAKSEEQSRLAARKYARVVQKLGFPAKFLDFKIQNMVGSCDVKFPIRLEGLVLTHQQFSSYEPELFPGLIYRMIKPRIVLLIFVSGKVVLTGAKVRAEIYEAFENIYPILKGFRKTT

T1 sequence (P21999 whole entry): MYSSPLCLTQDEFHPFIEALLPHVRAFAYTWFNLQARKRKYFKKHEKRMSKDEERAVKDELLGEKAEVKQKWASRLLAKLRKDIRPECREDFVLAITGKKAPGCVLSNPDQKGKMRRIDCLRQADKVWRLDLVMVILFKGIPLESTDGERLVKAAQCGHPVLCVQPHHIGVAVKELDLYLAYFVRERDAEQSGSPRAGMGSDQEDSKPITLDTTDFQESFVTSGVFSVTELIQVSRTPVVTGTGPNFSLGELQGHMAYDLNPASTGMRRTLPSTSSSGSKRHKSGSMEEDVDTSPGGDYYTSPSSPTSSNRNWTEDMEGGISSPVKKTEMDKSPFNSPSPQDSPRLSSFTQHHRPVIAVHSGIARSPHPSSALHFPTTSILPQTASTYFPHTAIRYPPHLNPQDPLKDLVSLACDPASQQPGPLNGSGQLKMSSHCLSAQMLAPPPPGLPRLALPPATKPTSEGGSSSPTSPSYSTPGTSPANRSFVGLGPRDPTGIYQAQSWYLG

B1: NF1 wild-type consensus oligo (dsDNA)
DNA 1: AATTCCTTTTTTTGGATTGAAGCCAATCGGATAATGAGG
DNA 2: CCTCATTATCCGATTGGCTTCAATCCAAAAAAAGGAATT
B1: binds (NF1 (nuclear factor 1/C) [1]).

B2: NF1 wild-type oligo of Fig. 2d (dsDNA)
DNA 1: AAGTCCTTTTTTAGGATTGAAGCCAATCGGCTGATGAGG
DNA 2: CCTCATCAGCCGATTGGCTTCAATCCTAAAAAAGGACTT
B2: binds (NF1 (nuclear factor 1/C) [2]).

B3: TBP wild-type AdML TATAA oligo (dsDNA)
DNA 1: CCTGAAGGGGGGCTATAAAAGGGGGTGGGGGCGCG
DNA 2: CGCGCCCCCACCCCCTTTTATAGCCCCCCTTCAGG
B3: binds [3].

Source: article PMC7295792, “Atomic-resolution mapping of transcription factor-DNA interactions by femtosecond laser crosslinking and mass spectrometry”
